According to patent US20200071424A1 (SHIONOGI, published 2020):

Key:
baboon EL [1] = target: T1, baboon EL (baboon); assay: ELISA: antibody captured on anti-mouse IgG-Fc plate, EL heparin extract added, detection with biotin anti-C2-tag antibody and HRP-streptavidin, A450
T1 construct: Heparin extract

Chimeric EL [187-500] = target: T2, Chimeric EL [187-500] (mouse;human); assay: as above
T2 construct: construct not described further; Used as heparin extract and detected through anti-C2-tag antibody; also called human (187-500) mouse chimera EL

[2] = target: T3, human [1-305]-mouse chimeric EL (human; mouse, UniProt Q9WVG5 306-500); assay: as above
T3 construct: Heparin extract, captured or detected by an anti-C2-tag antibody; also called human-mouse chimeric EL
T3 sequence: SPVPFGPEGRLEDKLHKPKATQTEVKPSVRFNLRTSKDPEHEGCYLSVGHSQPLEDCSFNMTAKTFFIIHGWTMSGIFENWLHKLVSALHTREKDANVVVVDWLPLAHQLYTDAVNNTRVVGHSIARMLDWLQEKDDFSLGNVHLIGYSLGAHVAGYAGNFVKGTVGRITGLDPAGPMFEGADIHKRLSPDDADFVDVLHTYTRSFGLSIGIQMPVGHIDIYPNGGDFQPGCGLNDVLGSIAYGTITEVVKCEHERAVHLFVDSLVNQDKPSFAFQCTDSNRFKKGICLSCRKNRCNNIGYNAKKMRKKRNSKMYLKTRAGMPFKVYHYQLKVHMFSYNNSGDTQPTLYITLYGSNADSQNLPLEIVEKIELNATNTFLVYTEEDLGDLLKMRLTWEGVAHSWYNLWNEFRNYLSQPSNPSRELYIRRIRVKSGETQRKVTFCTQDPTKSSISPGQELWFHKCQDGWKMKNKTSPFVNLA

baboon EL [3] = target: T1, baboon EL; assay: Biacore (as for the other anti-EL antibodies)
mouse EL [4] = target: T4, mouse EL (mouse, UniProt Q9WVG5 21-500); assay: Biacore (as for the other anti-EL antibodies)
T4 construct: Heparin extract
T4 sequence (looked up): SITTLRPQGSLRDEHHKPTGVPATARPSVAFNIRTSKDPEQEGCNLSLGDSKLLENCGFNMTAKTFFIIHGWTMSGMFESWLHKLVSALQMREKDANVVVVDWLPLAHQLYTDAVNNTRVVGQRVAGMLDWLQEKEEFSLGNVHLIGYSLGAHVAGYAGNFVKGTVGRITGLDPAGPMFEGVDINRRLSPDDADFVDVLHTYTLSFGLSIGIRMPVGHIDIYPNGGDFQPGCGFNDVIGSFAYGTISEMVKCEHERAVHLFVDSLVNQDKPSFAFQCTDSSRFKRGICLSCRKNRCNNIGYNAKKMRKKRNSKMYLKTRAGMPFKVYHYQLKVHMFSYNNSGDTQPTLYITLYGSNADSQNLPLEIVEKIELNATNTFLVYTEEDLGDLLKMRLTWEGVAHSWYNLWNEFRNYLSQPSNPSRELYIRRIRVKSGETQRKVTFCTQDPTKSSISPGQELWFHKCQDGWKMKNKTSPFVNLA

[5] = target: T3, human [1-305]-mouse chimeric EL; assay: Biacore (as for the other anti-EL antibodies)
rabbit EL = rabbit EL (rabbit); assay: cell-based or functional assay
baboon EL [6] = target: T1, baboon EL; assay: cell-based or functional assay
mouse EL [7] = target: T4, mouse EL; assay: cell-based or functional assay
[8] = target: T3, human [1-305]-mouse chimeric EL; assay: cell-based or functional assay

- EC50 (read off the curve) (baboon EL [1]): ~0.02 mg/L
- EC50 (read off the curve) (Chimeric EL [187-500]): ~0.02 mg/L
- EC50 (read off the curve) [2]: ~0.002 mg/L
- Kd (baboon EL [3]): 0.42 nM
- koff (baboon EL [3]): 0.0001 s⁻¹
- kon (baboon EL [3]): 240000 M⁻¹ s⁻¹
- Kd (mouse EL [4]): 0.68 nM
- koff (mouse EL [4]): 0.00015 s⁻¹
- kon (mouse EL [4]): 220000 M⁻¹ s⁻¹
- Kd [5]: 14 nM
- koff [5]: 0.004 s⁻¹
- kon [5]: 330000 M⁻¹ s⁻¹
- Neutralizing activity IC50 (rabbit EL): 2.3 nM
- Neutralizing activity IC50 (baboon EL [6]): 2.8 nM
- Neutralizing activity IC50 (mouse EL [7]): 2.5 nM
- Neutralizing activity IC50 [8]: 4 nM
B1: 16F6 (antibody, V domains shown)
VH: QVQLQQSGAELMKPGASVKISCKATGYTFSTYWIAWVKQRPGHGLEWIGEILPGSAKTKYNKKFKGKATFTADTSSNTAYMQLSSLTSEDSAVYYCAVYDYGADYWGQGTSVTVSS
VL: DIVMTQSHKFMSTSVGDRVSITCKASQDVYTAVAWYQQKPGQSPKLLIYSASYRFTGVPDRFTGSGAGTEFTFTINSVQAEDLAVYYCQQHYSIPRTFGGGTKLEIK
notes: mouse IgG1 raised in EL knock-out mice; not tied one by one
